Laboratory results published in US10465005B2, “JAML specific binding agents, antibodies, and uses related thereto” (Emory University, priority 2011, dated 2019).
“Also recorded” adds a separate entry of the source.

Assays:
T84 monolayers = test: Epithelial barrier recovery after calcium switch (TER, dextran flux); assay type: cell-based, human; conditions: 30 μg/ml, 20 m/ml, up to 24 hours, FIG. 9A
Method: T84 monolayers grown on permeable supports were subjected to transient calcium depletion by preincubation in Ca2+ free buffer (PBS) for 40 min to disassemble tight junctions, followed by switching back to calcium containing medium without (No Tx), or with sJAML or a control recombinant IgSF protein sSIRPa (30 μg/ml). Barrier recovery was measured as transepithelial resistance (TER) at time points as indicated.
FIG. 9B. Flux of fluorescently labeled dextran (3 k) was measured at the 24 h time point for conditions as described in panel A. N=4.
Since CAR plays a role in epithelial barrier, the effect of soluble JAML on epithelial barrier recovery was tested. Transepithelial resistance (TER) recovery experiments and dextran flux assay were performed with T84 cells grown in transwells (FIG. 9) as well as with Caco2 cells. […] As a negative control, a related soluble IgSF molecule SIRPalpha had no effect.

PMN = test: Surface JAML on PMN after activation (flow cytometry); assay type: cell-based, human
Method: Freshly isolated PMN, not treated (No Tx), or treated with either fMLF (100 nM) or PMA (200 nM) in suspension for 15 minutes at 37° c. were fixed with 1% paraformaldehyde, stained for JAML (DW100) and CD11b/CD18 (CBRM 1/29) and analyzed for surface expression by flow cytometry.
Since prior to transepithelial migration PMNs exit the blood vessels, whether JAML expression on PMNs would be preserved during migration across endothelial cells (HDMECs) towards a 10 μM fMLF, as described previously was evaluated. Indeed under similar conditions only a small portion of surface JAML was lost, but most of it was still detectable on PMN surface (FIG. 3B).
Thus whether PMN activation alone is sufficient to induce the loss of surface JAML or whether direct contact with the epithelium is required was examined. To test this, the expression of JAML was analyzed on PMNs that were stimulated in suspension with fMLF (100 μM) and PMA (200 nM). PMNs were allowed to adhere to epithelial cells for 1 hour. The loss of JAML could be correlated to the degree of PMN activation. […] This was again confirmed by immunofluorescence (FIG. 4B). PMN adhesion to epithelium in the absence of proinflamatory stimulus (as measured by flow cytometry, gating on Mac-1 positive PMNs) was also sufficient to induce a partial loss of surface JAML (FIG. 4C), in agreement with the small loss of surface JAML observed after migration through endothelial cells (FIG. 3B). […] Next, the observed loss of JAML during PMN activation may be due to its shedding from PMN surface and thus would be detectable in the supernatant of activated cells. To test this hypothesis, two antibodies, DW100 and DW216 that recognize two different epitopes of JAML were used in a sandwich ELISA assay to capture solubilized molecules in the supernatant of activated PMN.

[1] = tested on: CHO-JAML and CHO-CAR cells; test: CHO-JAML / CHO-CAR cell aggregation assay; assay type: cell-based; conditions: antibodies 30 μg/ml; 1 hour at 37° C.; FIG. 1D
Method: FIG. 1D. CHO-K1 cells stably transfected with either JAML (CHO-JAML) or CAR (CHO-CAR) proteins were allowed to aggregate (1 hour at 37° C. on a shaker at 50 RPM) separately (1×10^6 cells/BSA coated 3 ml Petri dish), or as a mix (5×10^5 each cell type/dish), in the absence or presence of anti-JAML monoclonal antibodies DW100, DW55 and DW216 (30 μg/ml). The number of clusters (left) and the area of the clusters (right) were quantified in 7 randomly chosen fields using light microscopy. The results are representative of four independent experiments. CHO-CAR and CHO-JAML in mixed cultures formed large aggregates.
(§1) Because certain antibodies recognize the membrane distal domain of JAML, their ability to inhibit binding to CAR was tested. By ELISA, the levels of soluble CAR-GST bound to immobilized sJAML-His preincubated with anti JAML antibodies was measured. […] Thus, these antibodies recognize three different epitopes on JAML and that both DW100 and DW55 bind epitopes close to the JAML binding site. Using a cell aggregation assay, the possibility that DW100 could inhibit the binding of JAML to CAR expressed on the surface of cells was examined. […] This again confirms previously described JAML binding to CAR, as well as the specificity of DW100 (blocking) and DW216 (non-blocking) Abs to JAML.

[2] = biological target: T1, CHO-JAML-His and CHO JAML-6xMyc (Homo sapiens, UniProt Q86YT9); test: FACS staining of stably transfected CHO-JAML cell lines; assay type: binding; conditions: FIG. 1A
T1 construct: 6xMyc (cell line CHO JAML-6xMyc); expressed in transfected cells
T1 sequence (Q86YT9 20-394): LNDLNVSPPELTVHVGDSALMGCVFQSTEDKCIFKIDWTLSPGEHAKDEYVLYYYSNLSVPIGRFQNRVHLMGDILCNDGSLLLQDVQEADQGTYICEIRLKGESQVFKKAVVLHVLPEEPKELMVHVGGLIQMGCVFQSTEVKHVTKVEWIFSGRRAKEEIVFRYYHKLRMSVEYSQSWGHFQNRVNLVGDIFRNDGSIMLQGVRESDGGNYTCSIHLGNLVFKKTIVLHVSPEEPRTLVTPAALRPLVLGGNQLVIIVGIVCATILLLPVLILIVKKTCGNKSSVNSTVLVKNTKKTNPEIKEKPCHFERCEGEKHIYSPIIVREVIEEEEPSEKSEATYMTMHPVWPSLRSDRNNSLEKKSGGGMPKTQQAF
Source text: BALB/c mice were immunized with recombinant soluble fragment of JAML.D1D2 tagged with 10 His residues at the C-terminus (sJAML-His), generated in H293T cells and purified by Nickel chromatography. After the 4th boost, mice were given a final immunization and, 3 days later, spleen cells harvested and fused to the myeloma cell line P3U1. Hybridomas were selected in HAT medium and supernatants of clones were subjected to screening first to immobilized, soluble JAML and followed by staining of CHO-JAML stable transfectants. Three hybridomas were selected and antibodies were purified from ascites. FACS staining profiles of mAbs using two different, stably transfected CHO-JAML cell lines, CHO-JAML-His and CHO JAML-6xMyc, both membrane bound and tagged at the C-terminus with either 10-His or 6xMyc. Control antibody is 9E10 anti Myc.
These hybridomas were further tested for reactivity against tagged, full-length JAML expressed on the surface of cultured cells. CHO-JAML-6XMyc transfectants were aliquoted and pelleted into round bottom 96 well plates. 100 μl hybridoma supernatants were added for 1 hr at 4° C. Cells were washed and positive wells were identified by FACS analysis using Goat anti Mouse-AlexaFluor 488. Cells from positive wells were cloned by limiting dilution at one cell per well and expanded first in DMEM-10% FBS containing HAT then in medium containing HT (ATCC) and later DMEM, 10% FBS. The cloned cells of interest were sent to Harlan Laboratories (Indianapolis, Ind.) for production of ascites. Antibodies were purified from ascitic fluid using proteinA-Sepharose (GE Healthcare) followed by dialysis against PBS. Aliquots were frozen at −80° C. Ig subclass of each antibody was determined by using the IsoStrip Mouse Monoclonal Antibody Isotyping Kit (Roche Applied Science). […]
Cells suspensions of adherent cells were prepared by trypsinization with Trypsin-EDTA (Sigma). […] After final washes, cells were analyzed using FACS Calibur. […] All samples were stained for JAML (DW100 mAb) and CD11b/CD18 (CBRM 1/29), and only CD11b/CD18 positive cells (PMNs) were analyzed for JAML expression.

JAML binding with CAR = biological target: T2, JAML binding with CAR (Homo sapiens, UniProt Q86YT9); test: CAR binding assay (ELISA, CAR-GST on immobilized sJAML-His); conditions: CAR-GST 10 μg/ml on immobilized sJAML-His preincubated with antibody; FIG. 1C
T2 construct: soluble JAMLD1D2 was truncated and tagged after residue Leucine259; made in house; host or cells: HEK293T (sJAML-His)
T2 sequence (Q86YT9 20-259): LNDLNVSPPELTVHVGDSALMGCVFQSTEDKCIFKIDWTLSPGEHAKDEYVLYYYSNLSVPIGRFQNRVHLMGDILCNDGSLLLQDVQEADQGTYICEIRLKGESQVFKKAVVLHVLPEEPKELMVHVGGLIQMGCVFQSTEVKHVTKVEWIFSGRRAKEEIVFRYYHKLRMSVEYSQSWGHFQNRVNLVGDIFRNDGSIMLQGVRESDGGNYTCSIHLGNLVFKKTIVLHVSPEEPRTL
Method: FIG. 1C. CAR binding assay: sJAML-His was coated in Immulon II microtiter microtiter wells overnight, at 4° C. Microtiter wells were washed and blocked and 100 μl antibody solutions were added to wells for 1 hour RT. After washing, CAR-GST was added at 10 μg/ml for 1 hour RT, washed and the assay was developed with HRP conjugated goat anti GST followed by ABTS and OD measurement at 405 nm.
as §1

[3] = tested on: T84 epithelial monolayers; test: Scratch wound closure of epithelial monolayers; assay type: cell-based, human; conditions: T84; mAb 30 μg/ml; FIG. 10A,B
Method: T84 epithelial monolayers grown to confluence were wounded by introduction of a single linear scratch wound using a 20-μl plastic pipette tip. Wound closure was monitored over 72 h in the absence or presence of PMN or sJAML. The scale bar is 10 μm.
Whether JAML binding to CAR would affect epithelial wound restitution was investigated. […] If soluble JAML interactions with CAR play a role, the effect could be reversed with the addition of blocking DW100 mAb.
Cell grown in 24-well tissue culture plates received one linear wound using a 20-μl plastic pipette tip attached to low suction. Wounded monolayers were washed once with PBS to remove detached cells and debris, and incubated with the appropriate stimulus added to the medium. The rate of migration was measured by determining the wound area immediately after wounding (t=0) and at the indicated time points. The data are presented as the area of the wound at each time point normalized to t=0. The experiments were carried out in triplicates per condition, and the data shown are representative of 4 independent experiments.

SIRPalpha: control recombinant IgSF protein, related soluble IgSF molecule [reference compound]
epithelial barrier recovery (TER) after calcium depletion (T84 monolayers): had no effect

fMLF
JAML expression on PMN after fMLF (PMN; 10 μM fMLF): no significant effect on JAML expression
surface JAML on PMN after fMLF (PMN; 100 μM fMLF, FIG. 4A as described in Example 4): partial but significant loss of JAML
surface JAML on PMN after fMLF (PMN; fMLF 100 nM, suspension, 15 minutes at 37° c., FIG. 4A): partial loss of JAML

B1: soluble CAR: purified extracellular domain of CAR that was tagged with GST (protein)
chain: LSITTPEEMIEKAKGETAYLPCKFTLSPEDQGPLDIEWLISPADNQKVDQVIILYSGDKIYDDYYPDLKGRVHFTSNDLKSGDASINVTNLQLSDIGTYQCKVKKAPGVANKKIHLVVLVKPSGARCYVDGSEEIGSDFKIKCEPKEGSLPLQYEWQKLSDSQKMPTSWLAEMTSSVISVKNASSEYSGTYSCTVRNRVGSDQCLLRLNVVPPSNKAG
modifications: left off: a dimerising Fc or GST
aggregation of mixed CHO-CAR and CHO-JAML cultures (number and size of clusters) [1]: blocked

B2: DW216: monoclonal anti-human JAML antibody (IgG1,κ), non-blocking; VH SEQ ID NO:21, VL SEQ ID NO:24 (antibody, V domains shown)
VH: DVQLVESGPGLVKPSQSLSLTCTVTGYSITSDYAWNWIRQFPGNKLEWMGYISSSGNSNYNPSLKSRISITRDTSKNQFFLQLNSVTTEDTATYYCAGATGYSMDYWGQGTTLTVK
VL: VLTQSPAIMSASLGERVTMTCTASSSVSSSYLHWYQQKPGSSPKLWIYSTSNLASGVPARFSGSGSGTSYSLTISSMEAEDAATYYCHQYHRSPFTFGSGTKLELK
FACS staining of CHO-JAML transfectant lines [2]: stained both transfectant lines equally well
inhibition of CAR binding to JAML (JAML binding with CAR): did not inhibit at all; also recorded: whereas DW216 did not
reversal of PMN or sJAML inhibition of wound closure [3]: but not DW216 mAb (30 μg/ml) significantly improved wound restitution

B3: DW55: monoclonal anti-human JAML antibody (IgG2b,κ); VH SEQ ID NO:20, VL SEQ ID NO:23 (antibody, V domains shown)
VH: CDVQLVESGGGLVQPGGSRKLSCAASGFTFSDYGMAWVRQAPGKGPEWVAFISNLAYSIYYSDTVTGRFTISRENAKNTLYLEMSSLRSEDTAMYYCARGDYSGGMMDYWGQGT
VL: VLTSQPASLAVSLGQRATISYRASKSVSTSGYSYMHWNQQKPGQPPRLLIYLVSNLESGVPARFSGSGSGTDFTLNIHPVEEEDAATYYCQHIRELTRSEGGPSWK
FACS staining of CHO-JAML transfectant lines [2]: stained both transfectant lines equally well
inhibition of CAR binding to JAML (JAML binding with CAR): inhibit human JAML binding with CAR; also recorded: partially inhibited binding; also recorded: partly inhibitory
